Results taken from PMC5651216, “Structural Basis for a Safety-Belt Mechanism That Anchors Condensin to Chromosomes”.

T1: Sc Ycg1 crystallization construct;Sc Brn1 384-529 (Saccharomyces cerevisiae;Saccharomyces …, UniProt Q06680;P38170 6-932;384-529, del499-555|)
T1 sequence 1: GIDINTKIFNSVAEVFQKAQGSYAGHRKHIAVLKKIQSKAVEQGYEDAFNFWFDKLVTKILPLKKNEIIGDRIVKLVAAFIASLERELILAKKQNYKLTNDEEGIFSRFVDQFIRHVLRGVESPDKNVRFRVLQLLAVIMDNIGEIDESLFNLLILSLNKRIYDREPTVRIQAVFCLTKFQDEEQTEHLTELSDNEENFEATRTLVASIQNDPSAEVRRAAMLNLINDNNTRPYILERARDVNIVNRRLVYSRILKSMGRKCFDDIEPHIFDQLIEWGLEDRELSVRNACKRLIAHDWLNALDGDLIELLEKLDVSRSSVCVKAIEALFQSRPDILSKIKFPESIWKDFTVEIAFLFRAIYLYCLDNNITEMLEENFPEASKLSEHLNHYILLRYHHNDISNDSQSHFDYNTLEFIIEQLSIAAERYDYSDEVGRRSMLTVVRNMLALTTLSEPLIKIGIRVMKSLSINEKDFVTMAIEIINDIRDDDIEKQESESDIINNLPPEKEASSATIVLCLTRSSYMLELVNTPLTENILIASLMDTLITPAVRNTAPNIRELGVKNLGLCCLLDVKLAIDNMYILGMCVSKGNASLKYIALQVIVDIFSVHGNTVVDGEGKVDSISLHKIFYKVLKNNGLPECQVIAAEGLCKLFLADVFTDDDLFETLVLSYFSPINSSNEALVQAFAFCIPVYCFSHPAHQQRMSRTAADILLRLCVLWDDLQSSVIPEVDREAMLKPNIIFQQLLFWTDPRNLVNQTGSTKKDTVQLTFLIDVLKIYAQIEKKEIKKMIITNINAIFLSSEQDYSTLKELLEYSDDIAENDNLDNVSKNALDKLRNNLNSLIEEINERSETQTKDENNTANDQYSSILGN
T1 sequence 2: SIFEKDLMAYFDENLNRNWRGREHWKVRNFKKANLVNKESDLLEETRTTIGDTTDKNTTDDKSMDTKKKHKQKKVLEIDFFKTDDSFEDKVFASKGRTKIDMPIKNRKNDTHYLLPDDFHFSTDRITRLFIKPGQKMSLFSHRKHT

T2: Sc Ycg1 crystallization construct;Sc Brn1 short kleisin loop (Saccharomyces cerevisiae;Saccharomyces …, UniProt Q06680;P38170 6-932;384-529, del499-555|del418-444)
T2 sequence 1: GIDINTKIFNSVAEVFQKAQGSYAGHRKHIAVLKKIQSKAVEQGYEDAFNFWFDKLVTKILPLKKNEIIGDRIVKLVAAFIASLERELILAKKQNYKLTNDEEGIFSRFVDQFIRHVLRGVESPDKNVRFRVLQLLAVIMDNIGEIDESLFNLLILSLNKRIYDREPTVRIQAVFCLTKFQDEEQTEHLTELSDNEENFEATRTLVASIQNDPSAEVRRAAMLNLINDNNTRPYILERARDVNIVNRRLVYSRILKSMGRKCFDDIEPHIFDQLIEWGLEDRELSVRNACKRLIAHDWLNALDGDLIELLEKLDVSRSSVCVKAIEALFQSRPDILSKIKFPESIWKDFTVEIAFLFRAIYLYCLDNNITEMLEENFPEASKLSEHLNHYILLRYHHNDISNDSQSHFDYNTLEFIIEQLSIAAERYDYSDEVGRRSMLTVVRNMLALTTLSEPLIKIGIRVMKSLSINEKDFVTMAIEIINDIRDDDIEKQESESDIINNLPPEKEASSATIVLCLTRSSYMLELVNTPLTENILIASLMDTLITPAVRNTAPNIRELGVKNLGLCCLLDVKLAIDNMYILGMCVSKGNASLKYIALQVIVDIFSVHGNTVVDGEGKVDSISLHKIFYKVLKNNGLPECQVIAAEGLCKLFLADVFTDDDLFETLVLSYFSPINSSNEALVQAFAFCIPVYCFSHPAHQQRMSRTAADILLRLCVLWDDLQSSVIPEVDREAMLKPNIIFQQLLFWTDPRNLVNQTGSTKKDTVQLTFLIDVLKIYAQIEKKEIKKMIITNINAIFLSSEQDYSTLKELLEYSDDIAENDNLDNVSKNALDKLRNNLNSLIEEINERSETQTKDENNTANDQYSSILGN
T2 sequence 2: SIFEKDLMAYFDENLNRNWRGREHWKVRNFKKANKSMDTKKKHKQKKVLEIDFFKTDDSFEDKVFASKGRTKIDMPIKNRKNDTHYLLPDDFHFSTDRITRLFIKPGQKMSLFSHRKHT

B1: 18-bp palindromic dsDNA (dsDNA)
DNA 1: GATGTGTAGCTACACATC
DNA 2: GATGTGTAGCTACACATC
B2: 35-bp dsDNA (dsDNA)
DNA 1: CCTATAGTGAGTCGTTCGATATTACAATTCACTGG
DNA 2: CCAGTGAATTGTAATATCGAACGACTCACTATAGG

Key:
[1] = system: Ct Ycg1 24-1006;Ct Brn1 deltaN 539-634 (Chaetomium thermophilum;Chaetomium thermophilum); assay: EMSA; conditions: protein conc. at which free DNA is depleted; EMSA: 10 mM HEPES-KOH pH 7.5, 125 mM NaCl, 5 mM MgCl2, 1 mM DTT, 30 min, gels at 4 C, 0.2 uM 35-bp or 10 nM 2.1-kb DNA; ITC: 25 mM Tris-HCl pH 7.5, 200 mM …
[2] = system: Ct Ycg1 24-1006;Ct Brn1 515-634 (Chaetomium thermophilum;Chaetomium thermophilum); assay: EMSA; conditions: protein conc. at which free DNA is depleted; EMSA: 10 mM HEPES-KOH pH 7.5, 125 mM NaCl, 5 mM MgCl2, 1 mM DTT, 30 min, gels at 4 C, 0.2 uM 35-bp or 10 nM 2.1-kb DNA; ITC: 25 mM Tris-HCl pH 7.5, 200 mM …
[3] = system: Ct Ycg1 24-1006;Ct Brn1 PhiD 515-634 (Chaetomium thermophilum;Chaetomium thermophilum); assay: EMSA; conditions: protein conc. at which free DNA is depleted; EMSA: 10 mM HEPES-KOH pH 7.5, 125 mM NaCl, 5 mM MgCl2, 1 mM DTT, 30 min, gels at 4 C, 0.2 uM 35-bp or 10 nM 2.1-kb DNA; ITC: 25 mM Tris-HCl pH 7.5, 200 mM …
[4] = system: Ct Ycg1 24-1006;Ct Brn1 515-634 (Chaetomium thermophilum;Chaetomium thermophilum); assay: ITC; conditions: 2 mM Mg2+, 25 C; EMSA: 10 mM HEPES-KOH pH 7.5, 125 mM NaCl, 5 mM MgCl2, 1 mM DTT, 30 min, gels at 4 C, 0.2 uM 35-bp or 10 nM 2.1-kb DNA; ITC: 25 mM Tris-HCl pH 7.5, 200 mM …
[5] = target: T1, Sc Ycg1 crystallization construct;Sc …; assay: X-ray crystallography; crystal form I, 2.98 A, 5 mM MgSO4; EMSA: 10 mM HEPES-KOH pH 7.5, 125 mM NaCl, 5 mM MgCl2, 1 mM DTT, 30 min, gels at 4 C, 0.2 uM 35-bp or 10 nM 2.1-kb DNA; ITC: 25 mM Tris-HCl pH 7.5, 200 mM NaCl, 2 mM MgCl2, 1 mM BME, 25 C; conditions: protein: recombinant;recombinant; tags: untagged;N-terminal His6-HRV3C; copies: 1;1; blunt, self-complementary
[6] = target: T2, Sc Ycg1 crystallization construct;Sc …; assay: X-ray crystallography; 5 mM MgSO4; EMSA: 10 mM HEPES-KOH pH 7.5, 125 mM NaCl, 5 mM MgCl2, 1 mM DTT, 30 min, gels at 4 C, 0.2 uM 35-bp or 10 nM 2.1-kb DNA; ITC: 25 mM Tris-HCl pH 7.5, 200 mM NaCl, 2 mM MgCl2, 1 mM BME, 25 C; conditions: protein: recombinant;recombinant; tags: untagged;N-terminal His6-HRV3C; copies: 1;1; blunt, self-complementary
[7] = target: Sc Smc2;Sc Smc4;Sc Ycs4;Sc Ycg1;Sc Brn1 BC1/2 (Saccharomyces cerevisiae;Saccharomyces …, UniProt P38989;Q12267;Q06156;Q06680;P38170 1-1170;1-1418;1-1176;1-1035;1-754, ||||K409D;R411D;K414D;K451D;K452D;K454D;K456D;K457D); assay: EMSA; EMSA: 10 mM HEPES-KOH pH 7.5, 125 mM NaCl, 5 mM MgCl2, 1 mM DTT, 30 min, gels at 4 C, 0.2 uM 35-bp or 10 nM 2.1-kb DNA; ITC: 25 mM Tris-HCl pH 7.5, 200 mM NaCl, 2 mM MgCl2, 1 mM BME, 25 C; conditions: protein: recombinant;recombinant;recombinant;recombinant;recombinant; tags: ;C-terminal StrepII x3;;;C-terminal His12-HA3; copies: 1;1;1;1;1; label: 5' 6-FAM on strand 1; blunt
[8] = target: Sc Smc2;Sc Smc4;Sc Ycs4;Sc Brn1 (Saccharomyces cerevisiae;Saccharomyces …, UniProt P38989;Q12267;Q06156;P38170 1-1170;1-1418;1-1176;1-754, |||); assay: EMSA; lacks Ycg1; EMSA: 10 mM HEPES-KOH pH 7.5, 125 mM NaCl, 5 mM MgCl2, 1 mM DTT, 30 min, gels at 4 C, 0.2 uM 35-bp or 10 nM 2.1-kb DNA; ITC: 25 mM Tris-HCl pH 7.5, 200 mM NaCl, 2 mM MgCl2, 1 mM BME, 25 C; conditions: protein: recombinant;recombinant;recombinant;recombinant; tags: ;C-terminal StrepII x3;;C-terminal His12-HA3; copies: 1;1;1;1; label: 5' 6-FAM on strand 1; blunt
Chain of Sc Smc2;Sc Smc4;Sc Ycs4;Sc Brn1 (P38989 whole entry, chain 1 of 4): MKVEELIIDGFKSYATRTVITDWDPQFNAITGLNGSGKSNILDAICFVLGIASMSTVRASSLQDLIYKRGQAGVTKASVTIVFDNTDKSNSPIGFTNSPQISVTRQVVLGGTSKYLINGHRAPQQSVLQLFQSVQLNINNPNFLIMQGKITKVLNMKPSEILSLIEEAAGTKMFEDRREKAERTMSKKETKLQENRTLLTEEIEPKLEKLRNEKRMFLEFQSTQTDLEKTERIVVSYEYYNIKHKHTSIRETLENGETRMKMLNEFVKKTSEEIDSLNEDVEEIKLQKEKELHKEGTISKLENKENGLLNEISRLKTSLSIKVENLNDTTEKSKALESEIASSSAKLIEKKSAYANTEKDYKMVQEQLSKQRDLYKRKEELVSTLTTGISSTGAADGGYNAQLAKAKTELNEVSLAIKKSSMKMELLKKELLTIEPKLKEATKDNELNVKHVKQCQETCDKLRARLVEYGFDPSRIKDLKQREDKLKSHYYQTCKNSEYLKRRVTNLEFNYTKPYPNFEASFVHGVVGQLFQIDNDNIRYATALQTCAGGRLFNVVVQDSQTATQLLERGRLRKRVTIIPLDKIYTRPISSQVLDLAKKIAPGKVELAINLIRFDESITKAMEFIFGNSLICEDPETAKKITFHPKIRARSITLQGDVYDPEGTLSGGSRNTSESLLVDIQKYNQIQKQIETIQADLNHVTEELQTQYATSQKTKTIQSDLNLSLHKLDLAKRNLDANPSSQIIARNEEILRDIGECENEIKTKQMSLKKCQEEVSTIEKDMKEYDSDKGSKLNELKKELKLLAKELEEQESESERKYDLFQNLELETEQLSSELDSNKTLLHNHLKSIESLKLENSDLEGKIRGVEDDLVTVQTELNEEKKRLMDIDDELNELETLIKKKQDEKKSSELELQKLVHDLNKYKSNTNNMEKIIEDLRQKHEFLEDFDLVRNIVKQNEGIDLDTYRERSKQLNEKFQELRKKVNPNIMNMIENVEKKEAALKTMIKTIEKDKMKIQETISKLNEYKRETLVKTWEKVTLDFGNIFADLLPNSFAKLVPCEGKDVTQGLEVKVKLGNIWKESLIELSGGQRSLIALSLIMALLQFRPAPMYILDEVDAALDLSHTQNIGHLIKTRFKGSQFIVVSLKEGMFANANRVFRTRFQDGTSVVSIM
Chain of Sc Smc2;Sc Smc4;Sc Ycs4;Sc Brn1 (Q12267 whole entry, chain 2 of 4): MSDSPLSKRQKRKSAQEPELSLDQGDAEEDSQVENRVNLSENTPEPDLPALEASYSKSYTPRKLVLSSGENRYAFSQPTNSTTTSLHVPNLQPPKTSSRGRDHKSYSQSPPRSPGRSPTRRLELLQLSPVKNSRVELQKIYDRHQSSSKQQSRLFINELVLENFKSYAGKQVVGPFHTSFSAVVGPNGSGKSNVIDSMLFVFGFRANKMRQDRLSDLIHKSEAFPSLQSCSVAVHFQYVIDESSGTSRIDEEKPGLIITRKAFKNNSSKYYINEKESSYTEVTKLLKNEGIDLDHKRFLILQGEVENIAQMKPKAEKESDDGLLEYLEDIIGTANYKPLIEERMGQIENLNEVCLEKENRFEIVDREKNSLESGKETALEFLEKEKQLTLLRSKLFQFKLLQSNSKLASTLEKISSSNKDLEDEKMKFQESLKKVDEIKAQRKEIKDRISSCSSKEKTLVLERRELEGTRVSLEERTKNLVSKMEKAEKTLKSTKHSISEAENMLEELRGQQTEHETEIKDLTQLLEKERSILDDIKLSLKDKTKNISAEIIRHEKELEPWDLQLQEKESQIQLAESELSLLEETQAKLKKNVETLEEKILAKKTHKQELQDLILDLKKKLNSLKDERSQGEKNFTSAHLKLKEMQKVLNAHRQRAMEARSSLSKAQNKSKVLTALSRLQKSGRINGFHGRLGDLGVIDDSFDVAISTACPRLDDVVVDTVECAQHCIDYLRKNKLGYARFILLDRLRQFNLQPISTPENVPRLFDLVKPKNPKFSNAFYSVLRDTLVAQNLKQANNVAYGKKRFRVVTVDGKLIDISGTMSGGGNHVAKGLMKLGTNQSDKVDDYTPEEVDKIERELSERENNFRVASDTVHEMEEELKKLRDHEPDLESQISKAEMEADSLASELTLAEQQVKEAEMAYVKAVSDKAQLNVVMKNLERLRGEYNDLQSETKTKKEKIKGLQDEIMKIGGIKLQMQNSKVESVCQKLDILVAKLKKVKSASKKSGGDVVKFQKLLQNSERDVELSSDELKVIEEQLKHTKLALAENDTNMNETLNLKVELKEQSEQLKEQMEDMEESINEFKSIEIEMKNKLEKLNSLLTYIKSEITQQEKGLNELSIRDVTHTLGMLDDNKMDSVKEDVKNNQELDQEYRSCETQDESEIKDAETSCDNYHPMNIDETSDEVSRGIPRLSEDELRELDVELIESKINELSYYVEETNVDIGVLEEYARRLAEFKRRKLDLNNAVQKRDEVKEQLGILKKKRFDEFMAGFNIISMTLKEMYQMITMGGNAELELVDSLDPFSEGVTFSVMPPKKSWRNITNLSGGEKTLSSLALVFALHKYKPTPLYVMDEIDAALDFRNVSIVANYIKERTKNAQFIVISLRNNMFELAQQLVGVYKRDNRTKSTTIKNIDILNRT
Chain of Sc Smc2;Sc Smc4;Sc Ycs4;Sc Brn1 (Q06156 whole entry, chain 3 of 4): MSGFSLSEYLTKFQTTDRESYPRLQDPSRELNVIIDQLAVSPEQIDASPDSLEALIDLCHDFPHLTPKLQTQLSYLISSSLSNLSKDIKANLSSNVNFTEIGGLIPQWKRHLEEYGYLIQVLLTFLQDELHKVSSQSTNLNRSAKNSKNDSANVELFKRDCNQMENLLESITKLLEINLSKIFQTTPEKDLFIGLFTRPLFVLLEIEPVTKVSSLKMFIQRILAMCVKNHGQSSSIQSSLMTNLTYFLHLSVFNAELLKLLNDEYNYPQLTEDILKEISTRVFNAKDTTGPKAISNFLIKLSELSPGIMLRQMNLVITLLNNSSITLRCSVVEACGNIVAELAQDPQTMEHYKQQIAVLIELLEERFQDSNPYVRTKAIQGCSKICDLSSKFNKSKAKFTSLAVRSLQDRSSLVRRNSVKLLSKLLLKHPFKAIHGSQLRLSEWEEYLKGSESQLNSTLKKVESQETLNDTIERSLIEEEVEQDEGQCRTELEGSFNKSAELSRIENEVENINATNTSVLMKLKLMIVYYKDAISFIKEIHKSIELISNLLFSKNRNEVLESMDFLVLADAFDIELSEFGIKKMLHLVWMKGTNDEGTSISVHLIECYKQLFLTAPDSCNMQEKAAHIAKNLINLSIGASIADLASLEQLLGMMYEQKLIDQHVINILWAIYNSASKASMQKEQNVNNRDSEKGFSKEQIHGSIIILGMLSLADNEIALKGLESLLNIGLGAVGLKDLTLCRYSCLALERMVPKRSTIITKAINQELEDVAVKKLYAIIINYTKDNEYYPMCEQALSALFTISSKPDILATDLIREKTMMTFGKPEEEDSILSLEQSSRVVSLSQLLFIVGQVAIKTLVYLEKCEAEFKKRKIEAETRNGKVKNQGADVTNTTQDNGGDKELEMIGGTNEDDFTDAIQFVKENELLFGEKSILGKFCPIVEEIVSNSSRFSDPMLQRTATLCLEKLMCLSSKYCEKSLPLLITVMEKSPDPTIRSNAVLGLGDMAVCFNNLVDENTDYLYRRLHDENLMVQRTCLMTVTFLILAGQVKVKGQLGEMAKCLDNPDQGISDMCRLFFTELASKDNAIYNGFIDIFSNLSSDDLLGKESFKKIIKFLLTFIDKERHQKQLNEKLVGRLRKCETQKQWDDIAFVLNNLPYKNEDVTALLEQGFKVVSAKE
Chain of Sc Smc2;Sc Smc4;Sc Ycs4;Sc Brn1 (P38170 whole entry, chain 4 of 4): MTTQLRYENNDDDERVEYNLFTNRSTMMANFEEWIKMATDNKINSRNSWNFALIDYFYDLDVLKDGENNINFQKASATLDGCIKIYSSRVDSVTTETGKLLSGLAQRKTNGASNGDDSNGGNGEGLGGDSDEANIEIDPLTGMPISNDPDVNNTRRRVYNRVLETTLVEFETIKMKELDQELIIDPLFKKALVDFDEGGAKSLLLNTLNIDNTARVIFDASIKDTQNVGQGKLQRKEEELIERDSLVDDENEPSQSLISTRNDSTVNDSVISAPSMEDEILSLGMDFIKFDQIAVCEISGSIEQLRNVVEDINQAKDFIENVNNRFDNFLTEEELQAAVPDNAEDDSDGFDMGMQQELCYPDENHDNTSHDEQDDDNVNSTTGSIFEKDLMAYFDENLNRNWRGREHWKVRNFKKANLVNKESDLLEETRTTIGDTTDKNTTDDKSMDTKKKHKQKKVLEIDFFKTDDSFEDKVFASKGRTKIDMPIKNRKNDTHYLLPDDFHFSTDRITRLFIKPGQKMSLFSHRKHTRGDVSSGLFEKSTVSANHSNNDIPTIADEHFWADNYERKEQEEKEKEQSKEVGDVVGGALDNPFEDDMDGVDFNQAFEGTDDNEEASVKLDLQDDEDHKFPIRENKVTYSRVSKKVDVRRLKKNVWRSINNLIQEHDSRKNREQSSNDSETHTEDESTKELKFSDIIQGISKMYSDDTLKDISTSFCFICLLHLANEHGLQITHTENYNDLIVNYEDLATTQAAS

Row | Molecule | binding signal [1] [nM] | binding signal [2] [nM] | binding signal [3] [nM] | also measured
1 | 2.1-kb circular supercoiled plasmid | 83 | 21 | 83 | 
2 | CCTATAGTGAGTCACAATTCACTGG (double strand) [25-bp dsDNA] |  |  |  | Kd [4]: 1700 nM
3 | CCTATAGTGAGTCGTTCGATATTACAATTCACTGG (double strand) [35-bp dsDNA] | 800 | 800 | 800 | 
4 | B1 |  |  |  | binding result [5]: binds; binding result [6]: binds
5 | B2 |  |  |  | binding result [7]: no binding; binding result [8]: no binding
